# From PMC5789954 (Proceedings of the National Academy of Sciences of the …, 2018)
# Target: the molecule itself
# Assay: SEC
row,Protein,stoichiometry N
1,"CUB1-EGF-CUB2 fragment of C1r (domain or fragment, UniProt P00736 18-307, looked up, N-linked carbohydrate at two sites (density seen in the crystals)) SIPIPQKLFGEVTSPLFPKPYPNNFETTTVITVPTGYRVKLVFQQFDLEPSEGCFYDYVKISADKKSLGRFCGQLGSPLGNPPGKKEFMSQGNKMLLTFHTDFSNEENGTIMFYKGFLAYYQAVDLDECASRSKSGEEDPQPQCQHLCHNYVGGYFCSCRPGYELQEDTHSCQAECSSELYTEASGYISSLEYPRSYPPDLRCNYSIRVERGLTLHLKFLEPFDIDDHQQVHCPYDQLQIYANGKNIGEFCGKQRPPDLDTSSNAVDLLFFTDESGDSRGWKLRYTTEII",2
2,"CUB1-EGF-CUB2 fragment of C1s (domain or fragment, N-linked carbohydrate at one site (density seen in the crystals)) EPTMYGEILSPNYPQAYPSEVEKSWDIEVPEGYGIHLYFTHLDIELSENCAYDSVQIISGDTEEGRLCGQRSSNNPHSPIVEEFQVPYNKLQVIFKSDFSNEERFTGFAAYYVATDINECTDFVDVPCSHFCNNFIGGYFCSCPPEYFLHDDMKNCGVNCSGDVFTALIGEIASPNYPKPYPENSRCEYQIRLEKGFQVVVTLRREDFDVEAADSAGNCLDSLVFVAGDRQFGPYCGHGFPGPLNIETKSNALDIIFQTDLTGQKKGWKLRYHGDPM",2
